The values that follow come from IntAct's records for PubMed 31515488.

B1: Vesicle transport through interaction with t-SNAREs homolog 1B (Homo sapiens), Q9UEU0 (parent)
chain: MASSAASSEHFEKLHEIFRGLHEDLQGVPERLLGTAGTEEKKKLIRDFDEKQQEANETLAEMEEELRYAPLSFRNPMMSKLRNYRKDLAKLHREVRSTPLTATPGGRGDMKYGIYAVENEHMNRLQSQRAMLLQGTESLNRATQSIERSHRIATETDQIGSEIIEELGEQRDQLERTKSRLVNTSENLSKSRKILRSMSRKVTTNKLLLSIIILLELAILGGLVYYKFFRSH
partner: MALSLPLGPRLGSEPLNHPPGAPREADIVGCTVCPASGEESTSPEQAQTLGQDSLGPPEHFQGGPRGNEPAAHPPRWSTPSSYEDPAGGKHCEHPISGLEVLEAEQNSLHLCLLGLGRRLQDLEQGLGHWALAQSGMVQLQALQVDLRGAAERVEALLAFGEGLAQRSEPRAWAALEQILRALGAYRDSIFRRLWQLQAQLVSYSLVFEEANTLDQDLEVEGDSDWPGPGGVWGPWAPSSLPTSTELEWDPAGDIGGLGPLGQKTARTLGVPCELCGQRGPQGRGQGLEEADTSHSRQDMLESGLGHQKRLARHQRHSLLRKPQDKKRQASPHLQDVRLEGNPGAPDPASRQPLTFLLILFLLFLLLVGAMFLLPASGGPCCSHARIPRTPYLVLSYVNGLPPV
B2: Mothers against decapentaplegic homolog 3 (Homo sapiens), P84022 (parent)
chain: MSSILPFTPPIVKRLLGWKKGEQNGQEEKWCEKAVKSLVKKLKKTGQLDELEKAITTQNVNTKCITIPRSLDGRLQVSHRKGLPHVIYCRLWRWPDLHSHHELRAMELCEFAFNMKKDEVCVNPYHYQRVETPVLPPVLVPRHTEIPAEFPPLDDYSHSIPENTNFPAGIEPQSNIPETPPPGYLSEDGETSDHQMNHSMDAGSPNLSPNPMSPAHNNLDLQPVTYCEPAFWCSISYYELNQRVGETFHASQPSMTVDGFTDPSNSERFCLGLLSNVNRNAAVELTRRHIGRGVRLYYIGGEVFAECLSDSAIFVQSPNCNQRYGWHPATVCKIPPGCNLKIFNNQEFAALLAQSVNQGFEAVYQLTRMCTIRMSFVKGWGAEYRRQTVTSTPCWIELHLNGPLQWLDKVLTQMGSPSIRCSSVS
B3: Thioredoxin-dependent peroxide reductase, mitochondrial (Homo sapiens), P30048 (parent)
chain: MAAAVGRLLRASVARHVSAIPWGISATAALRPAACGRTSLTNLLCSGSSQAKLFSTSSSCHAPAVTQHAPYFKGTAVVNGEFKDLSLDDFKGKYLVLFFYPLDFTFVCPTEIVAFSDKANEFHDVNCEVVAVSVDSHFSHLAWINTPRKNGGLGHMNIALLSDLTKQISRDYGVLLEGSGLALRGLFIIDPNGVIKHLSVNDLPVGRSVEETLRLVKAFQYVETHGEVCPANWTPDSPTIKPSPAASKEYFQKVNQ

The first assay covers variants of B1. The conditions noted are these: with syne4_human SYNE4, Q8N205.
For the variant MASSAASSEHFEKLHEIFRGLHEDLQGVPERLLGTAGTEEKKKLIRDFDEKQQEANETLAEMEEELRYAPLSFRNPMMSKLRNYRKDLAKLHREVRSTPLTATPGGRGDMKYGIYAVENEHMNQLQSQRAMLLQGTESLNRATQSIERSHRIATETDQIGSEIIEELGEQRDQLERTKSRLVNTSENLSKSRKILRSMSRKVTTNKLLLSIIILLELAILGGLVYYKFFRSH [R124Q], the “effect of a mutation on the interaction” value is on record as “with no effect”.

Consider MASSAASSEHFEKLHEIFRGLHEDLQGVPERLLGTAGTEEKKKLIRDFDEKQQEANETLAEMEEELRYAPLSFRNPMMSKLRNYRKDLAKLHREVRSTPLTATPGGRGDMKYGIYAVENEHMNRLQSQRAMLLQGTESLNRATQSIERSHRIATETDQIGSEIIEELGEQRDQLEHTKSRLVNTSENLSKSRKILRSMSRKVTTNKLLLSIIILLELAILGGLVYYKFFRSH [R176H], for which the “effect of a mutation on the interaction” value is on record as “with no effect”.

Variants of B2 are the subject of the next assay. The conditions noted are these: with smad4_human SMAD4, Q13485.
smad4_human SMAD4, Q13485, sequence (Q13485 whole entry): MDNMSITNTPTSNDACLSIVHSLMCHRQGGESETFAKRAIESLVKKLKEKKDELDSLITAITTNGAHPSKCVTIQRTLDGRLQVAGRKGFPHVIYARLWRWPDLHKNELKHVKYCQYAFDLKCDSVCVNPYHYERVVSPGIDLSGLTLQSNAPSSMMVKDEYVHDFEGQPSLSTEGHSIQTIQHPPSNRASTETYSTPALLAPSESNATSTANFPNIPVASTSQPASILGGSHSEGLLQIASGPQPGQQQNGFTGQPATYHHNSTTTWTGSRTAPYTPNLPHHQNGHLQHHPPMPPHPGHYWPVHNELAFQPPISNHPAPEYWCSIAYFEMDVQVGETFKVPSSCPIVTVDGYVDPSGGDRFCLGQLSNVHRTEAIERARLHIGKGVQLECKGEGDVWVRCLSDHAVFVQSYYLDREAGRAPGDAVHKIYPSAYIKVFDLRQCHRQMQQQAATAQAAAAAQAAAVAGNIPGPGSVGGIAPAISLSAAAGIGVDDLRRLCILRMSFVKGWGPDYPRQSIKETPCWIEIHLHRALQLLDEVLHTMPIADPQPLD
For I170V, the “effect of a mutation on the interaction” value was “with no effect”.

Variants of B2 are the subject of the next assay. The conditions noted are these: with ccd33_human CCDC33, Q8N5R6.
ccd33_human CCDC33, Q8N5R6, sequence (Q8N5R6 whole entry): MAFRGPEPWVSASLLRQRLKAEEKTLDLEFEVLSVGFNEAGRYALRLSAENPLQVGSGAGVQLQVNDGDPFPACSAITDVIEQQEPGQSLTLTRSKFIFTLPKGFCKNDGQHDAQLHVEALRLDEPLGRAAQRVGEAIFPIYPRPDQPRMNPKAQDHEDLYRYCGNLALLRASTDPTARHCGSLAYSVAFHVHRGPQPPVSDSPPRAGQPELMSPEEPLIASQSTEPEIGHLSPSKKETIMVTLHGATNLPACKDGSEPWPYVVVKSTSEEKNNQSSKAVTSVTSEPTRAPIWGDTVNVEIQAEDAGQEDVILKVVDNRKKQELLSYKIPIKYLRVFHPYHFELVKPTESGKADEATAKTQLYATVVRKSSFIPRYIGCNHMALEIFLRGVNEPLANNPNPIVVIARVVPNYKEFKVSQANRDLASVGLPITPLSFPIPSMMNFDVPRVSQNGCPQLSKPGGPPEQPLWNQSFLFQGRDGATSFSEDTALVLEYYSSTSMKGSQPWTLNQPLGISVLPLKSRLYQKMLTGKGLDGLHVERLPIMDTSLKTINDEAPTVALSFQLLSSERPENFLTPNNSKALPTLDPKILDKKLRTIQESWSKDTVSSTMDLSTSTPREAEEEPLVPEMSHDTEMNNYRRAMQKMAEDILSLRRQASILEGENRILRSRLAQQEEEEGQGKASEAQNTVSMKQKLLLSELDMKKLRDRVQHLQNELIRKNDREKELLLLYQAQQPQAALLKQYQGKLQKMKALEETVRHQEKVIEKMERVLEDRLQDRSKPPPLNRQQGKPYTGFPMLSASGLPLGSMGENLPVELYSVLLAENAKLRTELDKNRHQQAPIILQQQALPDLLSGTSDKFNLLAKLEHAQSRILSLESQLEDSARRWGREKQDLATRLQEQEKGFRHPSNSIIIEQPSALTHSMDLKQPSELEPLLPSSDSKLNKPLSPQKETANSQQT
Consider I170V, for which the “effect of a mutation on the interaction” value is “with no effect”.

In the next assay the parent is B2. The conditions noted are these: with smad4_human SMAD4, Q13485. This is another data set of the same source.
On to P393L, for which the “effect of a mutation on the interaction” value is recorded as “with no effect”.

In another assay the parent is B3. Particulars: with gors2_human GORASP2, Q9H8Y8.
On to MAAAVGRLLRASVARHVSAIPWGISATAALRPAACGRTSLTNLLCSGSSQAKLFSTSSSCHAPAVTQHAPYFKGTAVVNGEFKDLSLDDFKGKYLVLFFYPLDFTFVCPTEIVAFSDKANEFHDVNCEVVAVSVDSHFSHLAWINTPRKNGGLGHMNIALLSDLTKQISRDYCVLLEGSGLALRGLFIIDPNGVIKHLSVNDLPVGRSVEETLRLVKAFQYVETHGEVCPANWTPDSPTIKPSPAASKEYFQKVNQ [G173C], for which the “effect of a mutation on the interaction” value is “with no effect”.
